Test [1] has as its target T1, fluorescent-tagged His-tagged occludin 413–522 (human, UniProt Q16625 413-522, fluorescent label from the MonolithNT His-Tag Labeling Kit (NanoTemper)).
T1 sequence (looked up): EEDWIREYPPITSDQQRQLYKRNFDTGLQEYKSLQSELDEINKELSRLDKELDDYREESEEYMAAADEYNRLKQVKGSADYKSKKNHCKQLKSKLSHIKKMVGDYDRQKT
As to the kind of experiment: MST.

The target of test [2] is T2, occludin 413–522 α-helical bundle (NMR construct with the N-terminal extension GPLGS) (human, UniProt Q16625 413-522).
T2 sequence: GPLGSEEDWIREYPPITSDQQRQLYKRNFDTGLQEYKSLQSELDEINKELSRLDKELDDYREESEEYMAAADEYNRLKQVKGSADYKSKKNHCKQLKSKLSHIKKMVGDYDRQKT
Put plainly: NMR paramagnetic relaxation enhancement.

Square brackets hold non-standard residues; d marks the D form. Ends that are not written are not given here. * marks the point of attachment. MTSL = spin label, CC1(C)C=C(CS*)C(C)(C)N1[O]; pS = N[C@@H](COP(=O)(O)O)C(=O)O

B1: synthetic occludin 383–412 peptide, nonphosphorylated (peptide)
peptide: AKGRAGRSKRTEQDHYETDYTTGGESCDEL
One may read the Kd as a measure of binding affinity in units of concentration. Low readings indicate tighter binding, high ones weaker binding. Turning to B1, in test [1], binding was characterised by a dissociation constant (Kd) of 175 ± 27 µM.

B2: synthetic occludin 383–412 peptide phosphorylated at S408 (peptide)
peptide: AKGRAGRSKRTEQDHYETDYTTGGE[pS]CDEL
B2 showed a Kd in test [1] of 37 ± 15 µM.

B3: occludin 383–412^S408D unstructured region peptide, MTSL-labelled at C409 (peptide, UniProt Q16625 383-412, looked up)
chain: AKGRAGRSKRTEQDHYETDYTTGGEDC(MTSL)DEL
For B3, the binding result in test [2] was “binds”.

B4: occludin 383–412^S408A unstructured region peptide, MTSL-labelled at C409 (peptide, UniProt Q16625 383-412, looked up)
chain: AKGRAGRSKRTEQDHYETDYTTGGEAC(MTSL)DEL
On to B4, for which the binding result in test [2] was “binds”.

The values are drawn from article PMC9407527 (Proceedings of the National Academy of Sciences of the …, 2022).
